Several values for one entry are separate records, joined by “and”; a condition that tells them apart may be missing. Equal values may be shown once. Starred links: 1 amine or outer side, 2 acyl side, 3 side chain; linkers in the order of their positions; H or OH if unused. Positions of bridges follow the written chain, without caps; N, C: chain ends. Non-standard residues stand in square brackets, D forms with d. Groups on a side chain read outwards from the residue. Primed or numbered codes have the meaning given here. Chains are numbered I, II in the order given. No end group written: not given here. *: point of attachment. dLys(PYA) = D-lysine Nε-acylated with 4-pentynoic acid, clicked (triazole) to the linker azide, O=C(CCc1cn([*:3])nn1)NCCCC[C@@H](N[*:1])C(=O)[*:2]; dLys(PYA)″ = D-lysine N6-(4-pentynoyl) (D-Lys(PYA)), C#CCCC(=O)NCCCC[C@@H](N[*:1])C(=O)[*:2]; TATA = O=C(CC[*:1])N1CN(C(=O)CC[*:2])CN(C(=O)CC[*:3])C1; Biotin = O=C1N[C@H]2[C@H](CS[C@H]2CCCCC(=O)*)N1; 1Nal = N[C@@H](Cc1cccc2ccccc12)C(=O)O; d1Nal = N[C@H](Cc1cccc2ccccc12)C(=O)O; Hyp = O=C(O)[C@@H]1C[C@@H](O)CN1; hArg = N=C(N)NCCCC[C@H](N)C(=O)O; tBuAla = CC(C)(C)C[C@H](N)C(=O)O; PEG12′ = not defined here; Nle = CCCC[C@H](N)C(=O)O; Pent4ynoyl = C#CCCC(=O)*
Key:
[1] = biological target: T1, OX40 on Jurkat reporter cells (Promega CS197704) (UniProt P43489 29-277); experiment: cell-based or functional assay
T1 sequence (looked up): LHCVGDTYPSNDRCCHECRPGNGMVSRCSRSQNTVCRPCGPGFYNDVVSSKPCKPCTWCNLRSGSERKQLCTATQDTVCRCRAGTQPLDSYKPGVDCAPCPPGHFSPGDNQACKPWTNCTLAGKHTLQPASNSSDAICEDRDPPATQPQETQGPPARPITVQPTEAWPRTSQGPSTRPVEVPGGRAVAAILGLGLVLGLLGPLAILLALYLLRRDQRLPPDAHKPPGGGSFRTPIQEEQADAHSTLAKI

[2] = biological target: T2, CD137 on Jurkat reporter cells (Promega kit CS196005) (UniProt Q07011 24-255, limits assumed); experiment: cell-based or functional assay
[3] = biological target: T2, CD137 on Jurkat reporter cells (Promega …); experiment: cell-based or functional assay; remark: listed apart in the source
[4] = biological target: T3, rat CD137 extracellular domain (rat, UniProt Q4W8J3 24-189); experiment: SPR direct binding, captured BCY13582, n = 1
T3 sequence: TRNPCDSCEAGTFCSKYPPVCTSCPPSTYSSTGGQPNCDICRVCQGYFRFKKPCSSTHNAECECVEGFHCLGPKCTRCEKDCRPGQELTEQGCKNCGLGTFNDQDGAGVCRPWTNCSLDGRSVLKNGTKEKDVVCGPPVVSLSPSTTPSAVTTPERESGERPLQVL

[5] = biological target: T4, mouse CD137 extracellular domain (mouse, UniProt P20334 24-187); experiment: SPR direct binding, captured BCY13582, n = 1
T4 construct: extracellular domain
T4 sequence (looked up): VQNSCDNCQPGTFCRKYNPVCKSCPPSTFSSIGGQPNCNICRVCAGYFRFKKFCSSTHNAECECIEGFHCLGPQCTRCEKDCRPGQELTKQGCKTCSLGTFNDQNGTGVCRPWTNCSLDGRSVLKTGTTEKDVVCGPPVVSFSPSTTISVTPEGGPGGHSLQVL

[6] = biological target: T5, soluble OX40 (UniProt P43489 29-216, limits assumed); experiment: SPR, streptavidin captured BCY13582, soluble receptor
T5 construct: also called soluble TNF family receptor OX40
T5 sequence (looked up): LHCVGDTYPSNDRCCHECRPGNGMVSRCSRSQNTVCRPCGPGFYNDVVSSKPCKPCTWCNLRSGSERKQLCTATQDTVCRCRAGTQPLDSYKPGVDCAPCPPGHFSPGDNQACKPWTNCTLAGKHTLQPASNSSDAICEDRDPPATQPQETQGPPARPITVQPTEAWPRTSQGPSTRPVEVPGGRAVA

[7] = biological target: T6, soluble CD40 (UniProt P25942 21-193, limits assumed); experiment: as above
T6 construct: also called soluble TNF family receptor CD40

[8] = biological target: T7, cyno (NHP) CD137 extracellular domain (cyno (NHP), UniProt A9YYE7 24-186); experiment: SPR direct binding, captured BCY13582, soluble CD137 ECD, n = 1
T7 construct: extracellular domain

[9] = biological target: T8, human CD137 extracellular domain (human, UniProt Q07011 24-186, biotinylated where captured on the streptavidin chip); experiment: SPR direct binding, captured BCY13582, soluble CD137 ECD, n = 3
T8 construct: extracellular domain; Section 17 says only 'Recombinant human CD137 (R&D systems)'; also called CD137 (human); Recombinant human CD137 (R&D systems)

[10] = biological target: T9, GPR39 (human, UniProt O43194); experiment: Retrogenix cell microarray, HEK293 cells over-expressing the protein, detection with AlexaFluor647 streptavidin
T9 construct: full-length protein over-expressed in HEK293 cells
T9 sequence (single chain, looked up): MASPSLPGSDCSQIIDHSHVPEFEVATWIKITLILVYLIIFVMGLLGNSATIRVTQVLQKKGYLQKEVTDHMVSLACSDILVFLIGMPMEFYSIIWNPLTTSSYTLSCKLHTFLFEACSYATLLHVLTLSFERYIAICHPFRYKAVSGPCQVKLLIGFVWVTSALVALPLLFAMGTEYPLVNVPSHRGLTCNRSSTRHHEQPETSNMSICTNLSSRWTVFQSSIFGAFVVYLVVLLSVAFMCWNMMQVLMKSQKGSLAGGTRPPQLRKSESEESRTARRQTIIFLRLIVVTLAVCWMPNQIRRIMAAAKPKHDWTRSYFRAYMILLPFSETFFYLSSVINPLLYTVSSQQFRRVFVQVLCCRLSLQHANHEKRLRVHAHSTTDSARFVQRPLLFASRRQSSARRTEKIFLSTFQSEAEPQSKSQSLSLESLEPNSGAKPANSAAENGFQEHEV

[11] = biological target: T10, EVA1C (human, UniProt P58658); experiment: as above
T10 construct: full-length protein over-expressed in HEK293 cells
T10 sequence (single chain, looked up): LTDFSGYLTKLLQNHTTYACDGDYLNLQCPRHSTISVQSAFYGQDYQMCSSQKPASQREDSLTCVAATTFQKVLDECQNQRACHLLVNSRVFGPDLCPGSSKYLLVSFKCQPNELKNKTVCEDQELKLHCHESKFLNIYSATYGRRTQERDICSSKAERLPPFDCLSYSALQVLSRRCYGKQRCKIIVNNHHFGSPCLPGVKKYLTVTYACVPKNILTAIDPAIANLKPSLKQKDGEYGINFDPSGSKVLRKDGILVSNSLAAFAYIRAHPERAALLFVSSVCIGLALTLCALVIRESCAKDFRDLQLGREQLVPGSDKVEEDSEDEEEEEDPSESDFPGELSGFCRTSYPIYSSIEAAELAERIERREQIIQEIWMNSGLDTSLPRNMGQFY

[12] = biological target: T11, IGFBP1 (human, UniProt P08833); experiment: as above
T11 construct: full-length protein over-expressed in HEK293 cells
T11 sequence (single chain, looked up): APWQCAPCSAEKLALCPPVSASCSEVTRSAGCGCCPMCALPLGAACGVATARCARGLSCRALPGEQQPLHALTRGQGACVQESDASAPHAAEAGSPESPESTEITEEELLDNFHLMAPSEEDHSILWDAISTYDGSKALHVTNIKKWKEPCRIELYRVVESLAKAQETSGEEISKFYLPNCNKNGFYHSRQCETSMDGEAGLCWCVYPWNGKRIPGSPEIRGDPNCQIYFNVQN

[13] = biological target: T12, HMGB2 (human, UniProt P26583); experiment: as above
T12 construct: full-length protein over-expressed in HEK293 cells
T12 sequence (single chain, looked up): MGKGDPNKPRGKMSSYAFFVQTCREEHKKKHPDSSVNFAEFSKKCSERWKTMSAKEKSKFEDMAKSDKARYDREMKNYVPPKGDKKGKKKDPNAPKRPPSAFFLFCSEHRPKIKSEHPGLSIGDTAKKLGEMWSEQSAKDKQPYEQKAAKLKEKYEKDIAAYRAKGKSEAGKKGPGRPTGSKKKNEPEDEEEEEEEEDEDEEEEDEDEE

[14] = biological target: T13, METTL24 (human, UniProt Q5JXM2); experiment: as above
T13 construct: full-length protein over-expressed in HEK293 cells
T13 sequence (single chain, looked up): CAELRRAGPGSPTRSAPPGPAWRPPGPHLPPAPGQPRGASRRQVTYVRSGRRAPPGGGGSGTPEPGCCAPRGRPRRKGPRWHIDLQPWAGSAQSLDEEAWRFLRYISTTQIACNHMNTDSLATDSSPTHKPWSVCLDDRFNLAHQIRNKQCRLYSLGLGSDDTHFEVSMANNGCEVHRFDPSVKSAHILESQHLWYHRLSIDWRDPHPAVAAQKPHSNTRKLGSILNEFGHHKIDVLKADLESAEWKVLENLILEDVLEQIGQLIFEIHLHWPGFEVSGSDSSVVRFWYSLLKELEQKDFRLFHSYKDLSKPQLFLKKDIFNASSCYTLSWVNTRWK

[15] = biological target: T14, APLN (human, UniProt Q9ULZ1); experiment: as above
T14 construct: full-length protein over-expressed in HEK293 cells
T14 sequence (single chain, looked up): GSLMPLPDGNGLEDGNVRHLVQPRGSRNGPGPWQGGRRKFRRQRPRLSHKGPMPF

[16] = biological target: T2, CD137 on Jurkat reporter cells (Promega …); experiment: cell-based or functional assay; remark: listed apart in the source
[17] = biological target: T15, human EphA2 protein (human, UniProt P29317 25-534, limits assumed, biotinylated); experiment: SPR (Biacore T200), biotinylated EphA2 captured on streptavidin chip, 25° C.
T15 construct: Construct not described; also called EphA2 (human)

[18] = biological target: T15, human EphA2 protein; experiment: SPR (Biacore), biotinylated human EphA2 captured on a streptavidin chip, BCY13272 as analyte, 1:1 fit
[19] = biological target: T8, human CD137 extracellular domain; experiment: SPR (Biacore), biotinylated human CD137 captured on a streptavidin chip, BCY13272 as analyte, 1:1 fit; avidity from two CD137 bicycles
[20] = biological target: T8, human CD137 extracellular domain; experiment: SPR (Biacore), biotinylated human CD137 captured on a streptavidin chip, BCY13272 as analyte, 1:1 fit; the text says the reported KD may be an overestimation (avidity)
[21] = biological target: T8, human CD137 extracellular domain; experiment: SPR (Biacore), biotinylated human CD137 captured on a streptavidin chip, BCY13272 as analyte, 1:1 fit; the text calls the off rate very slow (avidity from two CD137 bicycles)

T8 sequence (Q07011 24-186): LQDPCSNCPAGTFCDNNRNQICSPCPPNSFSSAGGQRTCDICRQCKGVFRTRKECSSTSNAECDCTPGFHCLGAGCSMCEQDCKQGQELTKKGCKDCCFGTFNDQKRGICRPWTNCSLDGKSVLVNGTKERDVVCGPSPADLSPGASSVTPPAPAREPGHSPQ
T15 sequence (P29317 25-534 limits assumed): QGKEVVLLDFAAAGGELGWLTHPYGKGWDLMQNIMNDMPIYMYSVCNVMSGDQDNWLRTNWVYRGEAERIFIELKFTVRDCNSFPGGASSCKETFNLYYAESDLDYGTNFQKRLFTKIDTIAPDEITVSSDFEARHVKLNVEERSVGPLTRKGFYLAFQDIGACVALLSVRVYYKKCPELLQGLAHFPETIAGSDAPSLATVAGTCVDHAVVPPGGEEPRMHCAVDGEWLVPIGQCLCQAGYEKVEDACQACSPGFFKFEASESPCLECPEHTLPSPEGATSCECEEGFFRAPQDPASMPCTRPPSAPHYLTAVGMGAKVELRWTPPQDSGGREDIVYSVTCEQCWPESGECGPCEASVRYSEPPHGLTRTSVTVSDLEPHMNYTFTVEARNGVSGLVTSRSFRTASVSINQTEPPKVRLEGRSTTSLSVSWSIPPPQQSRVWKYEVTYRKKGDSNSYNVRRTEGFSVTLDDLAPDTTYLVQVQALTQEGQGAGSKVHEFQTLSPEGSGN
T2 sequence (Q07011 24-255 limits assumed): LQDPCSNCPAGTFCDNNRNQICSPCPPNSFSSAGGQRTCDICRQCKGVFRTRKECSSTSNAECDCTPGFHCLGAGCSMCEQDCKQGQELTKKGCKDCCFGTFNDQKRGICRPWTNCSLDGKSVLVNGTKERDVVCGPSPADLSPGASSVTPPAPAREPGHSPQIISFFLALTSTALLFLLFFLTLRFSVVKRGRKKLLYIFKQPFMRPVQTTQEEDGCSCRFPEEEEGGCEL
T7 sequence (A9YYE7 entry or part of it): as the sequence (Q07011 24-186) above, with P4L, N19S, R50K, T66I, P67S, F69Y, G75E, V149A counted along it
T6 sequence (P25942 21-193 limits assumed): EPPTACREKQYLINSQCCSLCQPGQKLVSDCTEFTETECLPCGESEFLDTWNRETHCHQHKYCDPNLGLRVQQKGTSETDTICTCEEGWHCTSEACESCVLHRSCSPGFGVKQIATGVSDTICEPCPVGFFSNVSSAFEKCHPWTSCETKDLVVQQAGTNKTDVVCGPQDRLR

B1: BCY12967 (peptide)
peptide 1: CP[1Nal]DCM[hArg]DWSTP[Hyp]WC
peptide 2: ACLYSPCWHPLNDCAK(Pent4ynoyl)
modifications: linker I:1-I:5-I:15 via TATA; linker II:2-II:7-II:14 via TATA (inferred); not fully specified (some residues); also: chain 1 N-terminus and chain 2 C-terminal Lys(PYA) joined by N-(acid-PEG3)-N-bis(PEG3-azide) linker
[1]
  EC50 (nM), Promega OX40 cell-activity assay in co-culture with tumor cells: 0.83 nM

B2: BCY13582 (biotinylated BCY11863) (peptide)
peptide 1: CP[1Nal][dD]CM[hArg]DWSTP[Hyp]WC
peptide 2: Ac-C[tBuAla]PE[dLys(PYA)]PYCFADPY[Nle]CA
peptide 3: Ac-C[tBuAla]PE[dLys(PYA)]PYCFADPY[Nle]CK([PEG12′-Biotin])
modifications: linker I:1-I:5-I:15, II:1-II:8-II:15, III:1-III:8-III:15 via TATA; also: linker at chain B 5 at chain C 5 to a chain's N-terminus via N-(acid-PEG3)-N-bis(PEG3-azide)
notes: also called test peptide
[2]
  Arithmetic mean EC50 (nM), HT1376 co-culture: 0.58 nM
  Arithmetic mean EC50 (nM), MDA-MB-468 co-culture: 0.34 nM
[3]
  EC50 (nM), HT1376 co-culture: 0.58 nM
  Emax (fold induction over background), HT1376: 57 fold over background
[4]
  binding result: no binding
[5]
  binding result: no binding
[6]
  binding result: no binding (tested: 100 nM)
[7]
  binding result: no binding (tested: 100 nM)
[8]
  Kd: 4230 pM
[9]
  Kd: 8400 pM
[10]
  binding result: no binding (tested: 1 µM)
[11]
  binding result: no binding (tested: 1 µM)
[12]
  binding result: no binding (tested: 1 µM)
[13]
  binding result: no binding (tested: 1 µM)
[14]
  binding result: no binding (tested: 1 µM)
[15]
  binding result: no binding (tested: 1 µM)

B3: heterotandem bicyclic peptide complex BCY13272 (peptide)
peptide 1: A[hArg]DC[Hyp]LVNPLCLEP[d1Nal]WTC
peptide 2: Ac-C[tBuAla]PE[dLys(PYA)″]PYCFADPY[Nle]CA
modifications: linker I:4-I:11-I:18, II:1-II:8-II:15 via TATA; not fully specified (bridges); also: 1:2 complex: BCY13118 + 2x BCY8928
notes: also called EphA2/CD137 heterotandem
[16]
  EC50 (nM), A549 co-culture: 0.147 nM and 0.107 nM and 0.132 nM
  Geo mean EC50/cell line, A549: 127 pM
  Geo mean EC50/cell line, HT-29: 279 pM
  Geo mean EC50/cell line, PC-3: 117 pM
[17]
  Kd: 2000 pM
[18]
  koff: 0.00102 s⁻¹
  kon: 502000 M⁻¹ s⁻¹
[19]
  kon: 302000 M⁻¹ s⁻¹
[20]
  Kd: ≤ 33.1 pM
[21]
  koff: ≤ 1e-05 s⁻¹

— patent publication US20230129258A1 (Bicycle, published 2023)
